In one test the target is T1, hHER-2-Fc (human, UniProt P04626 23-652).
T1 construct: Bought (R&D systems); Coated on the plate; not shown: Fc of the bought fusion protein
The test is described as follows: sandwich ELISA with mis-matched antigens. Here is the method: (§1) The dual-binding activity of the same synthesized IgG BsAbs is assessed using a sandwich ELISA. […] Sandwich ELISAs are developed for detecting the four different BsAb test articles; one for detecting anti-HER-2/anti-EGFR BsAb activity, one for detecting anti-HER-2/anti-LTPR BsAb activity, one for detecting anti-cMET/anti-EGFR BsAb activity and one for detecting anti-cMET/anti-LTPR BsAb activity. For all ELISAs, clear 96-well round bottom high binding Immulon microtiter plates (Greiner bio-one, cat #650061) are coated overnight at 2-8° C. with 50 μL/well 1 μg/mL hHER-2-Fc or 1 μg/mL hHGFR(cMet)-Fc (both from R&D systems) in a 50 mM Na2CO3 pH 8.3 buffer. The plates are washed 4 times with PBST and blocked with 200 μL/well casein buffer (Pierce) for 1 hr at room temperature. The plates are then washed 4 times with PBST and the parental IgG controls or BsAb IgG test articles are added at 50 μL/well and […] and serially diluted 1:3 down the plate. The controls and test articles are incubated on the plate for 1 hr at room temperature. The plates are then washed 4 times with PBST and 50 μL/well 1 μg/mL hEGFR-Fc-biotin or hLTβR-Fc-biotin (both from R&D systems) is added for 1 hr at room temperature. The plates are then washed 4 times with PBST followed by the addition of a 50 μL/well streptavidin-AP (Jackson Immunoresearch Labs Cat. #016-050-084) diluted 1:1000 in casein buffer. The streptavidin-AP is incubated in each well for 1 hr at room temperature. The plates are then washed 4 times with PBST and 100 μL/well 1-step PNPP substrate is added (Thermo Scientific Cat. #37621). After approximately 5-15 minutes, plates are read for Absorbance (405 nm) using a SPECTRAMAX® UV plate reader (Molecular Devices). Biotin-labeling of the hEGFR-Fc and hLTβR-Fc proteins is performed using EZ-LINK™ Sulfo-NHS-LC-Biotin (Thermo Scientific Cat. #21327) according to the manufacturer's protocol.
In general terms: ELISA stands for enzyme-linked immunosorbent assay.

The target of the next test is T2, hEGFR-Fc-biotin (human, UniProt P00533 25-645, biotin-labelled with EZ-LINK Sulfo-NHS-LC-Biotin).
T2 construct: Bought (R&D systems); Detection antigen of the sandwich; not shown: Fc of the bought fusion protein
As to the kind of experiment: sandwich ELISA with mis-matched antigens. Here is the method:
as §1

B1: MetMAb × BHA10 IgG BsAb, CH1/Cκ Wild-Type (AB / H4DR variable domain designs, 7.8.60 CH3, N297Q) (bispecific antibody)
heavy 1: EVQLVESGGGLVQPGGSLRLSCAASGYTFTSYWLHWVRKAPGKGLEWVGMIDPSNSDTRFNPEFKDRFTISADTSKNTAYLQMNSLRAEDTAVYYCATYRSYVTPLDYWGQGTLVTVSSASTKGPSVFPLAPSSKSTSGGTAALGCLVKDYFPEPVTVSWNSGALTSGVHTFPAVLQSSGLYSLSSVVTVPSSSLGTQTYICNVNHKPSNTKVDKKVEPKSCDKTHTCPPCPAPELLGGPSVFLFPPKPKDTLMISRTPEVTCVVVDVSHEDPEVKFNWYVDGVEVHNAKTKPREEQYQSTYRVVSVLTVLHQDWLNGKEYKCKVSNKALPAPIEKTISKAKGQPREPQVYTLPPSREEMTDNQVSLTCLVKGFYPSDIAVEWESNGQPENNYKTTPPVLMSDGSFFLASKLTVDKSRWQQGNVFSCSVMHEALHNHYTQKSLSLSPG
light 1: RIQMTQSPSSLSASVGDRVTITCKSSQSLLYTSSQKNYLAWYQDKPGKAPKLLIYWASTRESGVPSRFSGSGSGTDFTLTISSLQPEDFATYYCQQYYAYPWTFGQGTKVEIKRTVAAPSVFIFPPSDEQLKSGTASVVCLLNNFYPREAKVQWKVDNALQSGNSQESVTEQDSKDSTYSLSSTLTLSKADYEKHKVYACEVTHQGLSSPVTKSFNRGEC
heavy 2: QVQLVQSGAEVKKPGSSVKVSCKASGYTFTTYYLHWVRYAPGQGLEWMGWIYPGNVHAQYNEKFKGRVTITADKSTSTAYMELSSLRSEDTAVYYCARSWEGFPYWGRGTTVTVSSASTKGPSVFPLAPSSKSTSGGTAALGCLVKDYFPEPVTVSWNSGALTSGVHTFPAVLQSSGLYSLSSVVTVPSSSLGTQTYICNVNHKPSNTKVDKKVEPKSCDKTHTCPPCPAPELLGGPSVFLFPPKPKDTLMISRTPEVTCVVVDVSHEDPEVKFNWYVDGVEVHNAKTKPREEQYQSTYRVVSVLTVLHQDWLNGKEYKCKVSNKALPAPIEKTISKAKGQPRRPRVYTLPPSREEMTKNQVSLVCLVKGFYPSDIAVEWESNGQPENNYKTTPPVLDSDGSFFLYSVLTVDKSRWQQGNVFSCSVMHEALHNHYTQKSLSLSPG
light 2: DIQMTQSPSSLSASVGDRVTITCKASQNVGINVAWYQRKPGDAPKSLISSASYRYSGVPSRFSGSGSGTDFTLTISSLQPEDFATYFCQQYDTYPFTFGQGTKVEIKRTVAAPSVFIFPPSDEQLKSGTASVVCLLNNFYPREAKVQWKVDNALQSGNSQESVTEQDSKDSTYSLSSTLTLSKADYEKHKVYACEVTHQGLSSPVTKSFNRGEC
notes: Human IgG1; Tested as protein G purified product of four-plasmid co-expression; also called MetMAb × BHA10 Wild-Type
Consider B1, for which the binding result with hHER-2-Fc and with hEGFR-Fc-biotin was “no binding” each time.

B2: MetMAb × BHA10 IgG BsAb, CH1/Cκ design 14.3.1.1 (bispecific antibody)
heavy 1: EVQLVESGGGLVQPGGSLRLSCAASGYTFTSYWLHWVRKAPGKGLEWVGMIDPSNSDTRFNPEFKDRFTISADTSKNTAYLQMNSLRAEDTAVYYCATYRSYVTPLDYWGQGTLVTVSSASTKGPSVFPLAPSSKSTSGGTAALGCLVADYFPEPVTVSWNSGALTSGVHTFPAVLQSSGLYSLASVVTVPSSSLGTQTYICNVNHKPSNTKVDKKVEPKSCDKTHTCPPCPAPELLGGPSVFLFPPKPKDTLMISRTPEVTCVVVDVSHEDPEVKFNWYVDGVEVHNAKTKPREEQYQSTYRVVSVLTVLHQDWLNGKEYKCKVSNKALPAPIEKTISKAKGQPREPQVYTLPPSREEMTDNQVSLTCLVKGFYPSDIAVEWESNGQPENNYKTTPPVLMSDGSFFLASKLTVDKSRWQQGNVFSCSVMHEALHNHYTQKSLSLSPG
light 1: RIQMTQSPSSLSASVGDRVTITCKSSQSLLYTSSQKNYLAWYQDKPGKAPKLLIYWASTRESGVPSRFSGSGSGTDFTLTISSLQPEDFATYYCQQYYAYPWTFGQGTKVEIKRTVAAPSVFIFPPSDEQLKSGTARVVCLLNNFYPREAKVQWKVDNALQSGNSQESVTEQDSKDSTYSLISTLTLSKADYEKHKVYACEVTHQGLSSPVTKSFNRGEC
heavy 2: QVQLVQSGAEVKKPGSSVKVSCKASGYTFTTYYLHWVRYAPGQGLEWMGWIYPGNVHAQYNEKFKGRVTITADKSTSTAYMELSSLRSEDTAVYYCARSWEGFPYWGRGTTVTVSSASTKGPSVFPLAPSSKSTSGGTAALGCLVKDYFPEPVTVSWNSGALTSGVHTFPAVLQSSGLYSLSSVVTVPSSSLGTQTYICNVNHKPSNTKVDEKVEPKSCDKTHTCPPCPAPELLGGPSVFLFPPKPKDTLMISRTPEVTCVVVDVSHEDPEVKFNWYVDGVEVHNAKTKPREEQYQSTYRVVSVLTVLHQDWLNGKEYKCKVSNKALPAPIEKTISKAKGQPRRPRVYTLPPSREEMTKNQVSLVCLVKGFYPSDIAVEWESNGQPENNYKTTPPVLDSDGSFFLYSVLTVDKSRWQQGNVFSCSVMHEALHNHYTQKSLSLSPG
light 2: DIQMTQSPSSLSASVGDRVTITCKASQNVGINVAWYQRKPGDAPKSLISSASYRYSGVPSRFSGSGSGTDFTLTISSLQPEDFATYFCQQYDTYPFTFGQGTKVEIKRTVAAPSVFIFPPSDKQLKSGTASVVCLLNNFYPREAKVQWKVDNALQSGNSQESVTEQDSKDSTYSLSSTLTLSKADYEKHKVYACEVTHQGLSSPVTKSFNRGEC
notes: Human IgG1; also called MetMAb × BHA10 14.3.1.1
On to B2, for which the binding result in the test with hHER-2-Fc and with hEGFR-Fc-biotin was “no binding” throughout.

B3: MetMAb × BHA10 IgG BsAb, CH1/Cκ design 14.1.2 (bispecific antibody)
heavy 1: EVQLVESGGGLVQPGGSLRLSCAASGYTFTSYWLHWVRKAPGKGLEWVGMIDPSNSDTRFNPEFKDRFTISADTSKNTAYLQMNSLRAEDTAVYYCATYRSYVTPLDYWGQGTLVTVSSASTKGPSVFPLAPSSKSTSGGTAALGCLVADYFPEPVTVSWNSGALTSGVHTFPAVLQSSGLYSLSSVVTVPSSSLGTQTYICNVNHKPSNTKVDEKVEPKSCDKTHTCPPCPAPELLGGPSVFLFPPKPKDTLMISRTPEVTCVVVDVSHEDPEVKFNWYVDGVEVHNAKTKPREEQYQSTYRVVSVLTVLHQDWLNGKEYKCKVSNKALPAPIEKTISKAKGQPREPQVYTLPPSREEMTDNQVSLTCLVKGFYPSDIAVEWESNGQPENNYKTTPPVLMSDGSFFLASKLTVDKSRWQQGNVFSCSVMHEALHNHYTQKSLSLSPG
light 1: RIQMTQSPSSLSASVGDRVTITCKSSQSLLYTSSQKNYLAWYQDKPGKAPKLLIYWASTRESGVPSRFSGSGSGTDFTLTISSLQPEDFATYYCQQYYAYPWTFGQGTKVEIKRTVAAPSVFIFPPSDKQLKSGTARVVCLLNNFYPREAKVQWKVDNALQSGNSQESVTEQDSKDSTYSLSSTLTLSKADYEKHKVYACEVTHQGLSSPVTKSFNRGEC
heavy 2: QVQLVQSGAEVKKPGSSVKVSCKASGYTFTTYYLHWVRYAPGQGLEWMGWIYPGNVHAQYNEKFKGRVTITADKSTSTAYMELSSLRSEDTAVYYCARSWEGFPYWGRGTTVTVSSASTKGPSVFPLAPSSKSTSGGTAALGCLVKDYFPEPVTVSWNSGALTSGVHTFPAVLQSSGLYSLSSVVTVPSSSLGTQTYICNVNHKPSNTKVDKKVEPKSCDKTHTCPPCPAPELLGGPSVFLFPPKPKDTLMISRTPEVTCVVVDVSHEDPEVKFNWYVDGVEVHNAKTKPREEQYQSTYRVVSVLTVLHQDWLNGKEYKCKVSNKALPAPIEKTISKAKGQPRRPRVYTLPPSREEMTKNQVSLVCLVKGFYPSDIAVEWESNGQPENNYKTTPPVLDSDGSFFLYSVLTVDKSRWQQGNVFSCSVMHEALHNHYTQKSLSLSPG
light 2: DIQMTQSPSSLSASVGDRVTITCKASQNVGINVAWYQRKPGDAPKSLISSASYRYSGVPSRFSGSGSGTDFTLTISSLQPEDFATYFCQQYDTYPFTFGQGTKVEIKRTVAAPSVFIFPPSDEQLKSGTASVVCLLNNFYPREAKVQWKVDNALQSGNSQESVTEQDSKDSTYSLSSTLTLSKADYEKHKVYACEVTHQGLSSPVTKSFNRGEC
notes: Human IgG1; also called MetMAb × BHA10 14.1.2
B3: the binding result in the test with hHER-2-Fc and in the test with hEGFR-Fc-biotin was “no binding” in each case.

Values taken from US20240043552A1 (Eli Lilly, published 2024).
